Measured values reported in paper PMC7171158.

Target: NusA-AR2^D443C labeled with fluorescein-5-maleimide (E. coli) (UniProt P0AFF6)
Test: fluorescence polarisation; fluorescence anisotropy; 25 nM fluorescein-labeled NusA-AR2^D443C with increasing unlabeled protein; 25 °C; 50 mM Na-P pH 6.5, 100 mM NaCl, 150 mM glucose, 5 mM DTT, 0.05% Tween; two-state binding model

Binder	Kd
antiterminator protein Q from phage λ (λQ), full length (natural protein) MRLESVAKFHSPKSPMMSDSPRATASDSLSGTDVMAAMGMAQSQAGFGMAAFCGKHELSQNDKQKAINYLMQFAHKVSGKYRGVAKLEGNTKAKVLQVLATFAYADYCRSAATPGARCRDCHGTGRAVDIAKTELWGRVVEKECGRCKGVGYSRMPASAAYRAVTMLIPNLTQPTWSRTVKPLYDALVVQCHKEESIADNILNAVTR	268 µM
λQ deletion variant lacking 36 residues at the N-terminus (λQ^Δ36) (domain or fragment) AMGMAQSQAGFGMAAFCGKHELSQNDKQKAINYLMQFAHKVSGKYRGVAKLEGNTKAKVLQVLATFAYADYCRSAATPGARCRDCHGTGRAVDIAKTELWGRVVEKECGRCKGVGYSRMPASAAYRAVTMLIPNLTQPTWSRTVKPLYDALVVQCHKEESIADNILNAVTR	271 µM
